In US10934351B2, “Cancer stem cell-specific molecule” (CHUGAI SEIYAKU KABUSHIKI KAISHA, priority 2011, dated 2021):

Assays:
PLR59 = experiment: Differentiation-enhancing effect of BMP4 (CK20 expression, quantitative real-time PCR); type: cell-based, human; details: BMP4 20 nM; irinotecan-non-treated and irinotecan-treated PLR59 (FIG. 73A)
Description: (§1) BMP4 was assessed for the differentiation-enhancing effect on irinotecan-non-treated and irinotecan-treated PLR59 and PLR123. To assess the differentiation-enhancing effect on irinotecan-non-treated cells, PLR59 and PLR123 cells suspended in the media where BMP4 (R&D Systems; a final concentration of 20 nM) or a control buffer was added to culture media were seeded at a cell density of 5×10^5 cells/1.5 ml/well to each well of a 12-well plate. The cells were passaged while changing the culture media with the same type of medium 2, 4, and 7 days after seeding. To assess the differentiation-enhancing effect on irinotecan-treated cells, PLR59 or PLR123 was seeded at a cell density of 17×10^5 cells/5 ml/flask to a 12.5-ml culture flask. Following day, irinotecan was added at a final concentration of 15 μM. The flask was incubated at 37° C. for 72 hours in a CO2 incubator. Then, the medium in the flask was changed with a medium containing BMP4 or a control buffer. The medium was further changed with the same type of medium 2, 4, and 7 days after the initial medium change. […]
(§2) Quantitative real-time PCR was carried out using the cDNAs isolated as described above.

PLR123 = experiment: as above; type: cell-based, human; details: BMP4 20 nM; irinotecan-non-treated and irinotecan-treated PLR123 (FIG. 73B)
Description: as §1, §2

[1] = tested on: irinotecan-treated PLR123; experiment: Internalization activity / anti-tumor effect with Mab-ZAP or Rat-ZAP (CellTiter-Glo); type: cell-based, human; details: PLR123, Irinotecan-treated (15 μM, 72 hours)
Description: (§3) Mab-ZAP and Rat-ZAP are anti-mouse IgG antibody and anti-rat IgG antibody, respectively, conjugated with saporin, a toxin that inhibits protein synthesis (Advanced Targeting Systems). To assess the activity of internalization into irinotecan-non-treated cells, PLR59 and PLR123 cells were seeded at a cell density of 30000 cells/80 μl/well to respective wells of a 96-well plate. Following day, each antibody solution was added at a final concentration of 0.01, 0.1, or 1 μg/ml to the respective wells. Then, Mab-ZAP or Rat-ZAP was added at a final concentration 1 μg/ml to the respective wells, and the plate was incubated at 37° C. for 72 hours in a CO2 incubator. To assess the activity of internalization into irinotecan-treated cells, PLR59 and PLR123 cells were seeded in a 96-well plate, and irinotecan was added at a final concentration of 15 μM to each well. The plate was incubated at 37° C. for 72 hours in a CO2 incubator. Various antibodies were assessed for the activity of internalization to cells cultured as described above in the presence or absence of irinotecan. For assay, the various antibodies were each assessed for the internalization activity into cells contained in each well where the medium was replaced with the same irinotecan-free medium as used for irinotecan-non-treated cells. Seventy-two hours after addition of antibodies and Mab-ZAP or Rat-ZAP, 10 μl of 3% SDS (Nacalai Tesque) was added to each well of the plate. The cells in the plate were lysed thoroughly by stirring the plate using a plate mixer. Then, 100 μl of CellTiter-Glo™ Luminescent Cell Viability Assay (Promega) was added to each well. The mixture in each well was assayed to determine its luminescent signal. […] In Table 14, symbols, −, +, ++, and +++, represent relative values for the internalization activity when a test antibody was assayed at a concentration of […]. […] Symbols, −, +, ++, and +++, indicate that the relative value is less than 5%, 5% or more and less than 15%, 15% or more and less than 25%, and 25% or more, respectively.

[2] = tested on: irinotecan-non-treated PLR59; experiment: as above; type: cell-based, human; details: with Mab-ZAP or Rat-ZAP 1 μg/ml, 72 hours
Description: as §3

irinotecan-treated PLR59 = experiment: as above; type: cell-based, human; details: PLR59, Irinotecan-treated (15 μM, 72 hours)
Description: as §3

[3] = tested on: irinotecan-non-treated PLR123; experiment: as above; type: cell-based, human; details: with Mab-ZAP or Rat-ZAP 1 μg/ml, 72 hours
Description: as §3

[4] = tested on: irinotecan-non-treated PLR59; experiment: Flow cytometry (FCM) binding activity of commercially available antibodies to cell-surface antigens; parameters: species or system human; details: with antibody
Description: (§4) The present inventors tested whether an anti-tumor effect can be expected with target therapy using a membrane protein expressed at a high level as the target in irinotecan-treated or non-treated PLR59 and PLR123. Commercially available antibodies shown in Table 12 were assessed by flow cytometry (FCM) for the binding activity to antigens expressed on the cell surface of irinotecan-treated or non-treated PLR59 or PLR123.

[5] = tested on: irinotecan-non-treated PLR123; experiment: as above; parameters: species or system human; details: with antibody
Description: as §4

B1: BMP4: bone morphogenetic protein 4, polypeptide of SEQ ID NO: 4 (R&D Systems) (protein, listed as Homo sapiens)
chain: MIPGNRMLMVVLLCQVLLGGASHASLIPETGKKKVAEIQGHAGGRRSGQSHELLRDFEATLLQMFGLRRRPQPSKSAVIPDYMRDLYRLQSGEEEEEQIHSTGLEYPERPASRANTVRSFHHEEHLENIPGTSENSAFRFLFNLSSIPENEVISSAELRLFREQVDQGPDWERGFHRINIYEVMKPPAEVVPGHLITRLLDTRLVHHNVTRWETFDVSPAVLRWTREKQPNYGLAIEVTHLHQTRTHQGQHVRISRSLPQGSGNWAQLRPLLVTFGHDGRGHALTRRRRAKRSPKHHSQRARKKNKNCRRHSLYVDFSDVGWNDWIVAPPGYQAFYCHGDCPFPLADHLNSTNHAIVQTLVNSVNSSIPKACCVPTELSAISMLYLDEYDKVVLKNYQEMVVEGCGCR
PLR59
  CK20 expression level: elevated CK20 levels
PLR123
  CK20 expression level: elevated CK20 levels

B2: EPCAM (protein)
chain: QEECVCENYKLAVNCFVNNNRQCQCTSVGAQNTVICSKLAAKCLVMKAEMNGSKLGRRAKPEGALQNNDGLYDPDCDESGLFKAKQCNGTSMCWCVNTAGVRRTDKDTEITCSERVRTYWIIIELKHKAREKPYDSKSLRTALQKEITTRYQLDPKFITSILYENNVITIDLVQNSSQKTQNDVDIADVAYYFEKDVKGESLFHSKKMDLTVNGEQLDLDPGQTLIYYVDEKAPEFSMQGLKAGVIAVIVVVVIAVVAGIVVLVISRKKRMAKYEKAEIKEMGEMHRELNA
[1]
  internalization activity level: +++ (25% or more)
[2]
  internalization activity level: +++ (25% or more)
irinotecan-treated PLR59
  internalization activity level: +++ (25% or more)
[3]
  internalization activity level: +++ (25% or more)
[4]
  binding activity by flow cytometry (FCM), Antibody +: 7563
[5]
  binding activity by flow cytometry (FCM), Antibody +: 7701
